Our source for the IC50 values is patent publication US7071299B2, “Peptide and polypeptide inhibitors of complement C1s” (ZymoGenetics, Inc., priority 2000, dated 2006).

For the test, the target named is T1, Activated human C1s (Homo sapiens, UniProt P09871).
T1 construct: purchased Calbiochem-Novabiochem Corporation; San Diego, Calif
T1 sequence (P09871 16-437 limits assumed): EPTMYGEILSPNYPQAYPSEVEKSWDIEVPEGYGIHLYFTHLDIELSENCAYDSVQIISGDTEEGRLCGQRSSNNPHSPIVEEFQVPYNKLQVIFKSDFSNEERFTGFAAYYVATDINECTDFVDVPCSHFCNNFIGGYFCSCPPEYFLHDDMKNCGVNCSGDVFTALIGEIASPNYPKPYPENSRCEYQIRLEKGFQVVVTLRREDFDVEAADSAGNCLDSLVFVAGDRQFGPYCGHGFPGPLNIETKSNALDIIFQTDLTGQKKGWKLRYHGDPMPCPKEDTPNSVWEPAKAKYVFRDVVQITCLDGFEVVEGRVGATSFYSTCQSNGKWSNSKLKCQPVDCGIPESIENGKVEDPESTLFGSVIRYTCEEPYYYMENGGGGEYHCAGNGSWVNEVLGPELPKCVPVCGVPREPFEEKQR
T1 sequence (P09871 438-688 limits assumed): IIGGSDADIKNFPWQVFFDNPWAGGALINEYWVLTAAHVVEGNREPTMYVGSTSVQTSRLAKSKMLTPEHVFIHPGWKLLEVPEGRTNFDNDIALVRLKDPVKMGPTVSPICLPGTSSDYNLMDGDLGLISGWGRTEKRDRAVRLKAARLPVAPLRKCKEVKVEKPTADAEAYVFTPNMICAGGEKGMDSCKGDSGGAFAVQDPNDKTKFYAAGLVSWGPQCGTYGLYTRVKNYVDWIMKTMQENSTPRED
Description: C1s enzyme assay (chromogenic substrate Pefa-C1E, decrease in Vmax). Type of test: biochemical. The following applies: Table 6, effect of posttranslational modifications on BD001 activity. As for the experimental part: C1s enzyme assays were performed in 96 well plates preincubated in the assay buffer for 30 minutes at room temperature. Activated human C1s (Calbiochem-Novabiochem Corporation; San Diego, Calif.); final assay concentration: 1.25 μg/ml), was incubated with samples in 50 mM Tris-HCl (pH 8) that contained 116 mM sodium chloride and 0.05% Polysorbate 80. The chromogenic substrate, Pefa-C1E (Centerchem, Inc.; Stamford, Conn.; final assay concentration: 0.4 mM), was added to the assay wells and the plate was read at 405 nm, 37° C., for 30 minutes at 20 second intervals on a SPECTRAmax PLUS plate reader (Molecular Devices Corporation; Sunnyvale, Calif.). Inhibition was determined as a decrease in Vmax, which is calculated as the maximum Δ milli-absorbance units/min over the assay period.
Three types of post-translational modifications have been identified in BD001: (1) glycosylation at Asn^23 consisting of a fucosylated complex-type core; (2) sulfation of at least one of Tyr^117, Tyr^119, and Tyr^121; and (3) proteolytic cleavage after Arg^65. The first two modifications have been identified in native BD001 as well as recombinant BD001 expressed in Baculovirus. The third modification is seen in a fraction of the recombinant BD001 expressed in Baculovirus. […] The identity of each species was verified using mass spectroscopy, and protein concentrations were measured using absorbance at 280 nm. […]

Several values for one entry are separate records, joined by “and”; a condition that tells them apart may be missing. Identical values can stand only once.

B1: BD001 isolated from tissue: native leech protein BD001 (SEQ ID NO:1) isolated from the salivary complexes of the leech; inhibits C1s (protein, listed as Haementaria ghilianii)
chain: AKKKLPKCQKQEDCGSWDLKCNNVTKKCECRNQVCGRGCPKERYQRDKYGCRKCLCKGCDGFKCRLGCTYGFKTDKKGCEAFCTCNTKETACVNIWCTDPYKCNPESGRCEDPNEEYEYDYE
modifications: native, isolated from leech
A word on the IC50: it is the point on the concentration scale where inhibition reaches its midpoint. A higher IC50 goes with weaker potency in that assay. Regarding B1, the IC50 is 4 nM and 4.7 nM.
